B1: glmS ribozyme (parent)
chain: AUAAAAGCGCCAGAACUACAGAAAUGUAGUUGACGAGGAGGAGGUUUAUCGAAUUUUCGGCGGAUGCCUCCAAA

± gives the standard error. This sample holds only a part of the variants without activity. Some results are limits rather than exact numbers.

In this data set the parent is B1. The data set can be described thus: self-cleavage kobs at 10000 uM GlcN6P; higher = faster cleavage; RNA array. To be noted: with glucosamine-6-phosphate. In a few lines: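 Barcoded ribozyme variants were transcribed in situ on sequenced MiSeq chips by E. coli RNA polymerase. At 37 °C, a hybridised Cy3 probe tracked them while glucosamine-6-phosphate (40 μM to 10 mM) in HEPES/KCl/Mg(OAc)2 buffer flowed in and tiles were imaged over ~14 h. Per-tile medians of signals normalised to baseline and to non-cleaving reference variants were fit to one- or two-exponential decays, giving kobs. kcat and KM came from weighted Michaelis–Menten fits across concentrations.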
As to AUAAAUGCGCAAGAACUACAGAAAUGUAGUUGACGAGGGGGAGGUUUAUCGAAUUUUCGGCGGAUGCCUCCAAA [A6U C11A A39G], the “self-cleavage kobs at 10000 uM GlcN6P” value was below 1e-05 s⁻¹.

In the case of AUAAAUGCGCCAGAACUACAGAAAUGUAGUUGACGAGGAGGAGGGCUAUCGAAUUUUCGGCGGAUGCCUCCAAA [A6U U45G U46C], the “self-cleavage kobs at 10000 uM GlcN6P” value came to 4.58e-05 ± 1.7e-05 s⁻¹.

Consider AUAAAAGCGCCAGAACUACAGAAAUGUAGUUGGCGAGGAGGAGGUUUAUUGAAUUUUGGGCGGAUGCCUCUAAA [A33G C50U C58G C71U], for which the “self-cleavage kobs at 10000 uM GlcN6P” value was below 1e-05 s⁻¹.

With AUAAAAGCGCCAGAACUACAGAAAUGUAGUUGACGAGGAGGACGGUUUUUGAAUUUUUGGCGGAUGUCUCCAAA [G43C U45G A48U C50U C58U C67U], the “self-cleavage kobs at 10000 uM GlcN6P” value is below 1e-05 s⁻¹.

As to AUAAAAGCGCCAGAAGUACAGAAAUGUAGUUGACGAGGAGGAGGUUUAUCGAAUUUUCGGCGGAUGACUUCAAA [C16G C67A C70U], the “self-cleavage kobs at 10000 uM GlcN6P” value stood at 9.5e-05 ± 2.1e-05 s⁻¹.

For AUAAAAGCACCAGAUCUACAGAAAUGUAGUUGACGAGGGGGAGGUUUAUCGUAUUUUCGUCGGAUGCCUCCAAA [G9A A15U A39G A52U G60U], the “self-cleavage kobs at 10000 uM GlcN6P” value was below 1e-05 s⁻¹.

Regarding AUAAAAGCGCCAGAACUACAGAAAUGUAGUUGGCGACGAGGAGGUUUAUGGAAUUUUCGGCGGAUGCAUCCAAA [A33G G37C C50G C68A], the “self-cleavage kobs at 10000 uM GlcN6P” value was found to be 0.00162 ± 0.00046 s⁻¹.

Consider AUAAAAGCGCCAGAACUACAGAAAUGUAGUUGACGAGGAGGAUGUUUAUUGAAUUUUCGGCGAAUGCCUCCAAA [G43U C50U G63A], for which the “self-cleavage kobs at 10000 uM GlcN6P” value was below 1e-05 s⁻¹.

AUAAAAGCGCCAGAACUACAGAAAUGUAGUUGACGAGGAGGAGGUUUAUCGAAUUCUCGGCGGCAGCCUCCAAA [U56C A64C U65A]: the “self-cleavage kobs at 10000 uM GlcN6P” value is below 1e-05 s⁻¹.

In the case of AUAAAAUCGCCGGAACUACAGAAAUGUAGUUGACAAGGGGGAGGUUUAACGAAUUUUCGGCGGAUGACUCCAAA [G7U A12G G35A A39G U49A C67A], the “self-cleavage kobs at 10000 uM GlcN6P” value was below 1e-05 s⁻¹.

With AUAAAAGCACCAGAACUACAGAAAUGUAGUUGACGUGGAGGAGGAUUAUCGAAUUUUCGGCGGCUGCCUCCAAA [G9A A36U U45A A64C], the “self-cleavage kobs at 10000 uM GlcN6P” value is below 1e-05 s⁻¹.

Regarding AUAAAAGCGCCAGAACUACAGAAAUGUAGCUCACGAGGAAGAGGUUUAUCGAAUUUUCGGCGGAUGCCUCCAAA [U30C G32C G40A], the “self-cleavage kobs at 10000 uM GlcN6P” value came out at 6.96e-05 ± 1.4e-05 s⁻¹.

As for AUAAAAGCGCCAGAACUACAGAAAUGUAGUUGACGAGGAGGACGUUUACCGAAUUUUCGGCGGAUGCCUCCAAA [G43C U49C], the “self-cleavage kobs at 10000 uM GlcN6P” value is below 1e-05 s⁻¹.

Regarding AUAAAAGCGCCAGAACUACAGAAAUGUAGUAAACGAGGAGGGGGUUUAUCGAAUUUUCGGCGGAUGCCUCCAAA [U31A G32A A42G], the “self-cleavage kobs at 10000 uM GlcN6P” value was 0.000766 ± 0.00025 s⁻¹.

On to AUAAAAGCGCCAGAAUUACAGAAAUGUAGUUGAUGAGGAGGAGAUUUAUCGAAUUUUCGGCGGAUGCCUCCAAA [C16U C34U G44A], for which the “self-cleavage kobs at 10000 uM GlcN6P” value was below 1e-05 s⁻¹.

For the variant AUAAAAGCGCCAGAAUUACAGAAAUGUAGUUGACGAGGAGGAGGUUUAUCGAUUUUUCGGCGGAGGCCUCCAAA [C16U A53U U65G], the “self-cleavage kobs at 10000 uM GlcN6P” value was found to be 0.00246 ± 0.00058 s⁻¹.

AUAAAAGCGCCAGAACUACAGAAAUGUAGUUGACGAUGAGGAGUUUUAUCGAAUUUUCGUCGGAUGCCUCCAAA [G37U G44U G60U]: the “self-cleavage kobs at 10000 uM GlcN6P” value was below 1e-05 s⁻¹.

With AUAAAAGCGCCAGAACUACAGAAAUGUAGUUGACGAGUAGGAGGUUUAUGGAAUGUGCGGCGGAUGCCUCCAAA [G38U C50G U55G U57G], the “self-cleavage kobs at 10000 uM GlcN6P” value worked out at 7.32e-05 ± 2e-05 s⁻¹.

Regarding AUAAAAGCGCCAGAAGUACAGAAAUGUAGUUGACGAGGAGGAGGUUUAUAGAAUUCUCGGCGGAUGCCGCCAAA [C16G C50A U56C U69G], the “self-cleavage kobs at 10000 uM GlcN6P” value was below 1e-05 s⁻¹.

In the case of AUAAAAAGCCCAGAACUACAGAAAUGUAUUUGACCAAGAGGAGGUUUAUCGAAUUUUCGGCGGAUGCCUCCAAA [G7A C8G G9C G29U G35C G37A], the “self-cleavage kobs at 10000 uM GlcN6P” value is below 1e-05 s⁻¹.

Take AUAAAAGCGCCAGAACUACAGAAAUGUAGUAGACGAGGAGGAGGUUGGUCGAAUUUUCGGCGGAUGCCUCCAAA [U31A U47G A48G]: the “self-cleavage kobs at 10000 uM GlcN6P” value amounted to 3.62e-05 ± 1.3e-05 s⁻¹.

Turning to AUAAAAGCGCCAGAACUACAGAAAUGUAGUUGACGAGGAGUUGGUUUAUCGAAUCUUCGGCGGAUGCCUGCAAA [G41U A42U U55C C70G], the “self-cleavage kobs at 10000 uM GlcN6P” value was determined as 0.000238 ± 4.7e-05 s⁻¹.

AUAAAAGCGCCAGAACUACAGAAAUGUAGUUGACGAGGAGGAAGUUUAUCUAAUUUUCGGCGCAUGCCUCCAAA [G43A G51U G63C]: the “self-cleavage kobs at 10000 uM GlcN6P” value was below 1e-05 s⁻¹.

As for AUAAAAGCGCCAGCACUACAGAAAUGUAGUUGACGAGGAGGAGAAUUAUCGAAUUUUCGGCGGAUGCCUCCAAA [A14C G44A U45A], the “self-cleavage kobs at 10000 uM GlcN6P” value was 7.22e-05 ± 2.3e-05 s⁻¹.

On to AUAAAAGAGCCGGAACUACAGAAAUGUAGUUGACGAGGGGGAGGAUUCUCGAAUCUUCGGCGGAUGCCUCCAAA [C8A A12G A39G U45A A48C U55C], for which the “self-cleavage kobs at 10000 uM GlcN6P” value was below 1e-05 s⁻¹.

For the variant AUAAAAGCGCCAGAACUACAGAAAUGUAGGUGACGACGAGGAGGAUUAUCGGAUUUUCGGCGGAUGCCUCCAAA [U30G G37C U45A A52G], the “self-cleavage kobs at 10000 uM GlcN6P” value was below 1e-05 s⁻¹.

With AUAAAAGCGCCAGAACUACAGAAAUGUAGUUGCCGGGGAGGAGGUUGAUCAAAUUUUCGGCGGAUGCCUCCAAA [A33C A36G U47G G51A], the “self-cleavage kobs at 10000 uM GlcN6P” value is below 1e-05 s⁻¹.

For AUAAAAGCGCUAGAGCUACAGAAAUGUAGUCGACGAGGAGGAGGUUUAUCGAAUUUUCGGCGGAUGGCUCCAAA [C11U A15G U31C C67G], the “self-cleavage kobs at 10000 uM GlcN6P” value stood at 6.25e-05 ± 1.8e-05 s⁻¹.

Take AUAAAAGCGCCAGAACUACAGAAAUGUAGCUGACGCGGAGGAGGUUUAACGAAUUUUCGGCGGAUGCCUCCAAA [U30C A36C U49A]: the “self-cleavage kobs at 10000 uM GlcN6P” value was below 1e-05 s⁻¹.

For AUAAAAGCGCCAGCACUACAGAAAUGUAGUUGACGAGGAGGAGGUUUAUCGAAUAUUCGGCGGAUGCCUCUAAA [A14C U55A C71U], the “self-cleavage kobs at 10000 uM GlcN6P” value amounted to 0.00514 ± 0.0013 s⁻¹.

AUAAAAGCGCCAGCACUACAGAAAUGUAGUUGACGAGGAGGAGGUUUAUCGAAUUUACGGCGGAUGACUCCAAA [A14C U57A C67A]: the “self-cleavage kobs at 10000 uM GlcN6P” value was 3.08e-05 ± 1.4e-05 s⁻¹.

With AUAAAAGCGCCAGAACUACAGAAAUGUAGUUGACGAGGAGGCGCUUUAUCUAAUUUUCGGCGGAUACCUCCAAA [A42C G44C G51U G66A], the “self-cleavage kobs at 10000 uM GlcN6P” value was below 1e-05 s⁻¹.

As to AUAAAAGGGCCAGAACUACAGAAAUGUAGUUGAAGAGGAGGAGGUUUAUCGAAUUUUCGGCGGAUCCCUCCAAA [C8G C34A G66C], the “self-cleavage kobs at 10000 uM GlcN6P” value was below 1e-05 s⁻¹.

For the variant AUAAAAGCGCCAUAACUACAGAAAUGUAGUGGACGAGGAGGAGGUUUAUCGAAUUUUCGGCGGGUGCCUCCAAA [G13U U31G A64G], the “self-cleavage kobs at 10000 uM GlcN6P” value came out at 0.00021 ± 5.2e-05 s⁻¹.

For AUAAAAGCGCUGGUACUACAGAAAUGUAGUUGACGAGGAGGAGGUUUAUCGAAUUUUCGGCGGAUGCCUCCAAA [C11U A12G A14U], the “self-cleavage kobs at 10000 uM GlcN6P” value is 0.000156 ± 3.3e-05 s⁻¹.

Consider AUAAAAGCGUCAGAACUACAGAAAUGUAGUUGACGAGGAGGAGGUUUAUCGAAUCUUCGGCUGAUGCCUCCAAA [C10U U55C G62U], for which the “self-cleavage kobs at 10000 uM GlcN6P” value was below 1e-05 s⁻¹.

For the variant AUAAAAGCGCCAGAACUACAGAAAUGUAGUUUACGAGGAGGAUGUUUAUCGAAUUUUCGGCGGAUGCCCCCAAA [G32U G43U U69C], the “self-cleavage kobs at 10000 uM GlcN6P” value was below 1e-05 s⁻¹.

The values above are taken from the supplement of paper PMC7125110.
